In this test the target is HCoV-OC43 Nucleocapsid (N) protein (2X-StrepTag tagged) (HCoV-OC43) (UniProt P33469). Kind of test: BLI.
Sequence of HCoV-OC43 Nucleocapsid (N) protein (2X-StrepTag tagged) (HCoV-OC43) (P33469 whole entry): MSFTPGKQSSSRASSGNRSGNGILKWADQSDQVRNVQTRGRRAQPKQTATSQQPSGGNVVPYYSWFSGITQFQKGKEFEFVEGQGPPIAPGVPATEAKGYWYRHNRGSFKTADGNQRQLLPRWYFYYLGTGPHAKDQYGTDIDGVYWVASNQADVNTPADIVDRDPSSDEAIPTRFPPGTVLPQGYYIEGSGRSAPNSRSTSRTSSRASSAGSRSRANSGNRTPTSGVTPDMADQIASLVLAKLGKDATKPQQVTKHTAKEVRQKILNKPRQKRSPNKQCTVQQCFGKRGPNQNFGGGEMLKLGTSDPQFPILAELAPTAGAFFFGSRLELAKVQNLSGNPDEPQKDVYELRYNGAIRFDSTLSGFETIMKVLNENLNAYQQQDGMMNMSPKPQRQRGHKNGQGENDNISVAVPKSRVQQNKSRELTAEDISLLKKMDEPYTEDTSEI

For CXCL4 (ligand), the Kd came out at 170 nM, the koff stood at 0.00088 s⁻¹ and the kon came to 5300 M⁻¹ s⁻¹.

These data come from paper doi:10.1101/2023.02.24.529952.
